The series concerns the molecule itself. The series can be described thus: SEC. (In general: Size exclusion chromatography separates by hydrodynamic size, large species first.)

B1: human NLRP10 (aa 4-655) (natural protein)
chain: AKARKPREALLWALSDLEENDFKKLKFYLRDMTLSEGQPPLARGELEGLIPVDLAELLISKYGEKEAVKVVLKGLKVMNLLELVDQLSHICLHDYREVYREHVRCLEEWQEAGVNGRYNQVLLVAKPSSESPESLACPFPEQELESVTVEALFDSGEKPSLAPSLVVLQGSAGTGKTTLARKMVLDWATGTLYPGRFDYVFYVSCKEVVLLLESKLEQLLFWCCGDNQAPVTEILRQPERLLFILDGFDELQRPFEEKLKKRGLSPKESLLHLLIRRHTLPTCSLLITTRPLALRNLEPLLKQARHVHILGFSEEERARYFSSYFTDEKQADRAFDIVQKNDILYKACQVPGICWVVCSWLQGQMERGKVVLETPRNSTDIFMAYVSTFLPPDDDGGCSELSRHRVLRSLCSLAAEGIQHQRFLFEEAELRKHNLDGPRLAAFLSSNDYQLGLAIKKFYSFRHISFQDFFHAMSYLVKEDQSRLGKESRREVQRLLEVKEQEGNDEMTLTMQFLLDISKKDSFSNLELKFCFRISPCLAQDLKHFKEQMESMKHNRTWDLEFSLYEAKIKNLVKGIQMNNVSFKIKHSNEKKSQSQNLFSVKSSLSHGPKEEQKCPSVHGQKEGKDNIAGTQKEASTGKGRGTEETPKNTYI
On to B1, for which the binding result is “binds”.

B2: Walker A mutant human NLRP10 (aa 4-655 K179A) (natural protein)
chain: AKARKPREALLWALSDLEENDFKKLKFYLRDMTLSEGQPPLARGELEGLIPVDLAELLISKYGEKEAVKVVLKGLKVMNLLELVDQLSHICLHDYREVYREHVRCLEEWQEAGVNGRYNQVLLVAKPSSESPESLACPFPEQELESVTVEALFDSGEKPSLAPSLVVLQGSAGTGATTLARKMVLDWATGTLYPGRFDYVFYVSCKEVVLLLESKLEQLLFWCCGDNQAPVTEILRQPERLLFILDGFDELQRPFEEKLKKRGLSPKESLLHLLIRRHTLPTCSLLITTRPLALRNLEPLLKQARHVHILGFSEEERARYFSSYFTDEKQADRAFDIVQKNDILYKACQVPGICWVVCSWLQGQMERGKVVLETPRNSTDIFMAYVSTFLPPDDDGGCSELSRHRVLRSLCSLAAEGIQHQRFLFEEAELRKHNLDGPRLAAFLSSNDYQLGLAIKKFYSFRHISFQDFFHAMSYLVKEDQSRLGKESRREVQRLLEVKEQEGNDEMTLTMQFLLDISKKDSFSNLELKFCFRISPCLAQDLKHFKEQMESMKHNRTWDLEFSLYEAKIKNLVKGIQMNNVSFKIKHSNEKKSQSQNLFSVKSSLSHGPKEEQKCPSVHGQKEGKDNIAGTQKEASTGKGRGTEETPKNTYI
Turning to B2, the binding result is “binds”.

For the origin of these results see publication doi:10.1101/2025.11.27.690698 (bioRxiv, 2025).
